Laboratory results from IntAct's records for PubMed 21203436.

B1: Protein MKS1 (Arabidopsis thaliana (Mouse-ear cress)), Q8LGD5 (parent)
chain: MDPSEYFAGGNPSDQQNQKRQLQICGPRPSPLSVHKDSHKIKKPPKHPAPPPNRDQPPPYIPREPVVIYAVSPKVVHATASEFMNVVQRLTGISSGVFLESGGGGDVSPAARLASTENASPRGGKEPAARDETVEINTAMEEAAEFGGYAPGILSPSPALLPTASTGIFSPMYHQGGMFSPAIPLGLFSPAGFMSPFRSPGFTSLVASPTFADFFSHIWDQD
partner: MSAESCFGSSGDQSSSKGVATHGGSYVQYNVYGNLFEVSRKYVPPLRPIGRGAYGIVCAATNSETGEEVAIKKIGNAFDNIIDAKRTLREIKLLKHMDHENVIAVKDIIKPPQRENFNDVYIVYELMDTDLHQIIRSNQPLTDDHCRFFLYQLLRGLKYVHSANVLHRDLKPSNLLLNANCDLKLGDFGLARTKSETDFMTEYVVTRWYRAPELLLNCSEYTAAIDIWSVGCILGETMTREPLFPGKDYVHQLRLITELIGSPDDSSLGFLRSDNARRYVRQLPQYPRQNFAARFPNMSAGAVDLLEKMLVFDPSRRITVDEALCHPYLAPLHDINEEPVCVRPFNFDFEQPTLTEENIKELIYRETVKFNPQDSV

Variants of: B1
Settings: with mpk4_arath MPK4, Q39024

Row | Variant | effect of a mutation on the interaction
1 | P29A | disrupting interaction
2 | S38A | disrupting interaction
3 | K40A | disrupting interaction
4 | K19A | disrupting interaction
5 | R28A | disrupting interaction
6 | L32A | disrupting interaction
